Experimental data reported in article PMC3299734, “In Vivo Depletion of Lymphotoxin-Alpha Expressing Lymphocytes Inhibits Xenogeneic Graft-versus-Host-Disease” (PLoS ONE, 2012).

B1: TNFRII.Ig (TNFRII IgG fusion protein) (Fc fusion, human, UniProt P20333 23-257, looked up)
chain: LPAQVAFTPYAPEPGSTCRLREYYDQTAQMCCSKCSPGQHAKVFCTKTSDTVCDSCEDSTYTQLWNWVPECLSCGSRCSSDQVETQACTREQNRICTCRPGWYCALSKQEGCRLCAPLRKCRPGFGVARPGTETSDVVCKPCAPGTFSNTTSSTDICRPHQICNVVAIPGNASMDAVCTSTSPTRSMAPGAVHLPQPVSTRSQHTQPTPEPSTAPSTSFLLPMGPSPPAEGSTGD
modifications: labeled with SULFO-TAG NHS-ester as the detecting copy in the competitive blocking ELISA
notes: TNF receptor II (TNFRSF1B), human, fused to Ig; detected with anti-human Fc); also called TNFRII.Fc
B2: human LT-α3 (soluble lymphotoxin-α homotrimer) (ligand, UniProt P01374 35-205, looked up)
chain: LPGVGLTPSAAQTARQHPKMHLAHSTLKPAAHLIGDPSKQNSLLWRANTDRAFLQDGFSLSNNSLLVPTSGIYFVYSQVVFSGKAYSPKATSSPLYLAHEVQLFSSQYPFHVPLLSSQKMVYPGLQEPWLHSMYHGAAFQLTQGDQLSTHTDGIPHLVLSPSTVFFGAFAL
modifications: labeled with biotin in the competitive blocking ELISA only
notes: lymphotoxin-alpha, human, recombinant soluble homotrimer; also called recombinant LT-α3; soluble LT-α

What was measured:
[1] = target: human LT-α1β2 (lymphotoxin-α/lymphotoxin-β heterotrimer) (human) (UniProt P01374); assay: ELISA; competitive blocking ELISA (Meso Scale Discovery read-out): test molecule serially diluted, incubated 2 hr with biotinylated LT-α3 or LT-α1β2, captured on streptavidin plates 30 min, then SULFO-TAG TNFRII.Ig or LT-βR.Ig added 30 min
[2] = target: human LT-α1β2 (lymphotoxin-α/lymphotoxin-β heterotrimer) (human) (UniProt P01374); assay: ELISA; wells coated overnight with 0.5-1 µg/ml human LT-α1β2 or LT-α3, blocked with PBS with 5 mg/ml BSA; LT-βR or TNFRII IgG fusion proteins added; detected with HRP goat F(ab')2 anti-human Fc and tetramethylbenzidine; EC50 by 4-parameter fit
[3] = target: B2; assay: ELISA; competitive blocking ELISA (Meso Scale Discovery read-out): test molecule serially diluted, incubated 2 hr with biotinylated LT-α3 or LT-α1β2, captured on streptavidin plates 30 min, then SULFO-TAG TNFRII.Ig or LT-βR.Ig added 30 min; conditions: both partners purified
[4] = target: B2; assay: ELISA; wells coated overnight with 0.5-1 µg/ml human LT-α1β2 or LT-α3, blocked with PBS with 5 mg/ml BSA; LT-βR or TNFRII IgG fusion proteins added; detected with HRP goat F(ab')2 anti-human Fc and tetramethylbenzidine; EC50 by 4-parameter fit; conditions: both partners purified
[5] = target: B1; assay: ELISA; competitive blocking ELISA (Meso Scale Discovery read-out): test molecule serially diluted, incubated 2 hr with biotinylated LT-α3 or LT-α1β2, captured on streptavidin plates 30 min, then SULFO-TAG TNFRII.Ig or LT-βR.Ig added 30 min; conditions: both partners purified

Work on “Human LT-βR.Ig (LT-βR IgG fusion protein) (from UniProt P36941 31-227) (Fc fusion)” yielded an IC50 [1] of 0.1 nM and an EC50 [2] of 0.048 nM.

B1 gave an IC50 [3] of 0.83 nM and an EC50 [4] of 0.133 nM.

B2: binds [5].
